Measured values published in US20230220042A1 (SHANGHAI JIAO TONG UNIVERSITY SCHOOL OF MEDICINE, published 2023).
Numbering of substitutions follows the chain as printed. Numbers in names are those of the source.

T1: Biotin-FcγRIIB (human FcγRIIB, Sino Biological) (human, UniProt P31994 43-217, limits assumed, biotin-labeled)
T1 construct: Used at 1 µg/ml with Streptavidin-APC for flow cytometry and sorting; also called CD32b
T1 sequence (looked up): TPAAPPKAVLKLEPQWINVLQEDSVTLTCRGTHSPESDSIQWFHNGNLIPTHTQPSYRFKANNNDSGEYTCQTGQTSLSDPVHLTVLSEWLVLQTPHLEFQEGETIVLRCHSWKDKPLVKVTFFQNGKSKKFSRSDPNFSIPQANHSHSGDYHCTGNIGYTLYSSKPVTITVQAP

T2: Biotin-FcγRIIB (human, UniProt P31994 43-217, limits assumed, biotin label)
T2 construct: Soluble labelled protein used to stain and sort the display cells; also called human FcγRIIB; CD32b
T2 sequence (looked up): T1 sequence (looked up)

T3: FcγRIIB (human, UniProt P31994 43-217, biotin-labeled)
T3 construct: extracellular domain; Bought protein; also called CD32b
T3 sequence (looked up): T1 sequence (looked up)

T4: FcγRIIA^131H (human, UniProt P12318 34-217, biotin-labeled)
T4 construct: extracellular domain; Bought protein; also called RIIAH
T4 sequence (looked up): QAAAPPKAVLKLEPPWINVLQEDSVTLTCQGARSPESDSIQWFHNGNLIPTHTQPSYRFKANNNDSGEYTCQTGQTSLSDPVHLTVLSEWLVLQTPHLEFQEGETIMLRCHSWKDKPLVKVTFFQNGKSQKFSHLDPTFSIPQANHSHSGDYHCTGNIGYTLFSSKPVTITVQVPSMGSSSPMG

T5: FcγRIIA^131R (human, UniProt P12318 34-217, biotin-labeled)
T5 construct: extracellular domain; Bought protein; also called RIIAR
T5 sequence (looked up): T4 sequence (looked up) with H134R

B1: human IgG2 anti-mouse CD40 surface displayed antibody, S267Q (antibody, name in EU numbering)
light chain (with the P2A rest): DTVLTQSPALAVSPGERVTISCRASDSVSTLMHWYQQKPGQQPKLLIYLASHLESGVPARFSGSGSGTDFTLTIDPVEADDTATYYCQQSWNDPWTFGGGTKLELKRTVAAPSVFIFPPSDEQLKSGTASVVCLLNNFYPREAKVQWKVDNALQSGNSQESVTEQDSKDSTYSLSSTLTLSKADYEKHKVYACEVTHQGLSSPVTKSFNRGECGSGATNFSLLKQAGDVEENPG
heavy chain: EVQLVESDGGLVQPGRSLKLPCAASGFTFSDYYMAWVRQAPTKGLEWVASISYDGSSTYYRDSVKGRFTISRDNAKSTLYLQMDSLRSEDTATYYCGRHSSYFDYWGQGVMVTVSSASTKGPSVFPLAPCSRSTSESTAALGCLVKDYFPEPVTVSWNSGALTSGVHTFPAVLQSSGLYSLSSVVTVPSSNFGTQTYTCNVDHKPSNTKVDKTVERKCCVECPPCPAPPVAGPSVFLFPPKPKDTLMISRTPEVTCVVVDVQHEDPEVQFNWYVDGVEVHNAKTKPREEQFNSTFRVVSVLTVVHQDWLNGKEYKCKVSNKGLPAPIEKTISKTKGQPREPQVYTLPPSREEMTKNQVSLTCLVKGFYPSDIAVEWESNGQPENNYKTTPPMLDSDGSFFLYSKLTVDKSRWQQGNVFSCSVMHEALHNHYTQKSLSLSPGKLEPPPSTVSNMATVAVLVVLGAAIVTGAVVAFVMKMRRRNTGGKGGDYALAPGSQTSDLSLPDCKVMVHDPHSLA
notes: m1 with this Fc mutation (Eu numbering); copies: 2 + 2
B2: human IgG2 anti-mouse CD40 surface displayed antibody, H268D/S298L/L328W (antibody, name in EU numbering)
light chain (with the P2A rest): B1 light chain (with the P2A rest)
heavy chain: B1 heavy chain with Q262S, H263D, S293L, L323W
notes: As m1 with the Fc mutations
B3: human IgG2 anti-mouse CD40 surface displayed antibody, S267V/S298G/L328W (antibody, name in EU numbering)
light chain (with the P2A rest): B1 light chain (with the P2A rest)
heavy chain: B1 heavy chain with Q262V, S293G, L323W
notes: As m1 with the Fc mutations
B4: human IgG2 anti-mouse CD40 surface displayed antibody, S239V/V266L/S298L/L328W (antibody, name in EU numbering)
light chain (with the P2A rest): B1 light chain (with the P2A rest)
heavy chain: B1 heavy chain with S234V, V261L, Q262S, S293L, L323W
notes: As m1 with the Fc mutations
B5: human IgG2 anti-mouse CD40 surface displayed antibody, S267V/S298L/L328W (antibody, name in EU numbering)
light chain (with the P2A rest): B1 light chain (with the P2A rest)
heavy chain: B1 heavy chain with Q262V, S293L, L323W
notes: As m1 with the Fc mutations
B6: human IgG2 anti-mouse CD40 surface displayed antibody, V266L/L328W (antibody, name in EU numbering)
light chain (with the P2A rest): B1 light chain (with the P2A rest)
heavy chain: B1 heavy chain with V261L, Q262S, L323W
notes: As m1 with the Fc mutations
B7: human IgG2 anti-mouse CD40 surface displayed antibody, V266A/P271C (antibody, name in EU numbering)
light chain (with the P2A rest): B1 light chain (with the P2A rest)
heavy chain: B1 heavy chain with V261A, Q262S, P266C
notes: m1 with these Fc mutations (Eu numbering); copies: 2 + 2
B8: human IgG2 anti-mouse CD40 surface displayed antibody, V266L/S298L/L328W (antibody, name in EU numbering)
light chain (with the P2A rest): B1 light chain (with the P2A rest)
heavy chain: B1 heavy chain with V261L, Q262S, S293L, L323W
notes: As m1 with the Fc mutations
B9: human IgG2 anti-mouse CD40 surface displayed antibody, V266G/P271C (antibody, name in EU numbering)
light chain (with the P2A rest): B1 light chain (with the P2A rest)
heavy chain: B1 heavy chain with V261G, Q262S, P266C
notes: as for B7
B10: human IgG2 anti-mouse CD40 surface displayed antibody, V266A/P271G (antibody, name in EU numbering)
light chain (with the P2A rest): B1 light chain (with the P2A rest)
heavy chain: B1 heavy chain with V261A, Q262S, P266G
notes: as for B7
B11: IgG2 N297A (antibody, name in EU numbering)
heavy: QVQLQESGPGLVKPSGTLSLTCAVSGGSISSSIWWSWVRQPPGKGLEWIGEIHHSGNTNCNPSLKSRVTISIDKSKNQFSLKLTSVTAADTAVYYCARAGTGTTLDYWGQGTLVTVSSASTKGPSVFPLAPCSRSTSESTAALGCLVKDYFPEPVTVSWNSGALTSGVHTFPAVLQSSGLYSLSSVVTVPSSNFGTQTYTCNVDHKPSNTKVDKTVERKCCVECPPCPAPPVAGPSVFLFPPKPKDTLMISRTPEVTCVVVDVSHEDPEVQFNWYVDGVEVHNAKTKPREEQFASTFRVVSVLTVVHQDWLNGKEYKCKVSNKGLPAPIEKTISKTKGQPREPQVYTLPPSREEMTKNQVSLTCLVKGFYPSDIAVEWESNGQPENNYKTTPPMLDSDGSFFLYSKLTVDKSRWQQGNVFSCSVMHEALHNHYTQKSLSLSPGK
light: EIVLTQSPGTLSLSPGERATLSCRASQSVSGDYLAWYQQKLGQAPRLLIYGASIRATGIPDRFSGSGSGTDFTLTISKLEPEDFAVYYCQQYGSSPLTFGGGTKVEIKRTVAAPSVFIFPPSDEQLKSGTASVVCLLNNFYPREAKVQWKVDNALQSGNSQESVTEQDSKDSTYSLSSTLTLSKADYEKHKVYACEVTHQGLSSPVTKSFNRGEC
notes: Entries include an unstated signal peptide
B12: anti-human OX40 IgG2 antibody Mut_1 (L328W) (antibody, name in EU numbering)
heavy: B11 heavy with A294N, L325W
light: B11 light
notes: Substitutions in Eu numbering; entries include an unstated signal peptide

Tests used:
[1] = target: T1, Biotin-FcγRIIB (human FcγRIIB, Sino …); test: NGS after FACS sort of 3T3-displayed Library2 for biotin-FcγRIIB binding
Biotin-FcγRIIB = target: T2, Biotin-FcγRIIB; test: NGS of 3T3 display library Cmix flow-sorted for FcγRIIB binding
FcγRI = target: T6, FcγRI (human, UniProt P12314 16-292, biotin-labeled); test: ELISA, coated antibody, biotin-FcγR;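 on Absorbance value: antibody coated at 2 µg/mL at 100 µL per well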
T6 construct: extracellular domain; Bought protein; also called CD64
Protocol: (§1) One hundred μl (2 μg/mL) of antibody or mutant thereof were added to the enzyme-linked plate to be coated overnight, then the supernatant was discarded. The plate was blocked with PBS containing 1% BSA for 2 hours, and washed with PBST (PBS containing 0.05% Tween 20). Biotin-labeled FcγR extracellular domain protein (Beijing Sino Biological Co., Ltd) of appropriate concentration was added and incubated at room temperature for 1 hour, then the supernatant was discarded and the plate was washed with PBST. The Biotin-labeled protein was detected by incubating with Streptavidin-HRP (BD BioSciences) at room temperature for 1 hour. The supernatant was removed, and the color-developing solution was added for color development for 20-40 minutes to determine the absorbance of 650 nm (A650).
(§2) Anti-human OX40 antibodies containing these new Fc mutation combinations are expressed and the binding property of the mutant antibody to FcγR are analyzed by Enzyme-linked immunosorbent assay (ELISA).

FcγRIIB [2] = target: T3, FcγRIIB; test: ELISA, coated antibody, biotin-FcγR;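 on Absorbance value: antibody coated at 2 µg/mL at 100 µL per well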
Protocol: as §1, §2

FcγRIIIA^158V = target: T7, FcγRIIIA^158V (human, UniProt P08637 17-208, biotin-labeled); test: ELISA, coated antibody, biotin-FcγR;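 on Absorbance value: antibody coated at 2 µg/mL at 100 µL per well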
T7 construct: extracellular domain; Bought protein; also called RIIIAV; CD16a 158V
Protocol: as §1, §2

FcγRIIA^131H = target: T4, FcγRIIA^131H; test: ELISA, coated antibody, biotin-FcγR;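 on Absorbance value: antibody coated at 2 µg/mL at 100 µL per well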
Protocol: as §1, §2

FcγRIIB [3] = target: T3, FcγRIIB; test: ELISA; relative affinity to FcγRIIB over that to FcγRIIA131R
Protocol: as §1, §2

FcγRIIA^131R = target: T5, FcγRIIA^131R; test: ELISA, coated antibody, biotin-FcγR;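 on Absorbance value: antibody coated at 2 µg/mL at 100 µL per well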
Protocol: as §1, §2

FcγRIIIA^158F = target: T8, FcγRIIIA^158F (human, UniProt P08637 17-208, biotin-labeled); test: ELISA, coated antibody, biotin-FcγR;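 on Absorbance value: antibody coated at 2 µg/mL at 100 µL per well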
T8 construct: extracellular domain; Bought protein; also called RIIIAF
Protocol: as §1, §2

T6 sequence (P12314 16-292): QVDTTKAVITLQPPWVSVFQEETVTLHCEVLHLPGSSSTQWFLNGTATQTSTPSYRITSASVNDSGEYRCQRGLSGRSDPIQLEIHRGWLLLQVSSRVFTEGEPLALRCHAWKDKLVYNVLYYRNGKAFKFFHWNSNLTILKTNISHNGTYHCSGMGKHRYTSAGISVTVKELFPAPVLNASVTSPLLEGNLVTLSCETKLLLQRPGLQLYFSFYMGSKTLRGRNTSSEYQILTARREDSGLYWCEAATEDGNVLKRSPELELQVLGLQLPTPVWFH
T7 sequence (P08637 17-208 F176V): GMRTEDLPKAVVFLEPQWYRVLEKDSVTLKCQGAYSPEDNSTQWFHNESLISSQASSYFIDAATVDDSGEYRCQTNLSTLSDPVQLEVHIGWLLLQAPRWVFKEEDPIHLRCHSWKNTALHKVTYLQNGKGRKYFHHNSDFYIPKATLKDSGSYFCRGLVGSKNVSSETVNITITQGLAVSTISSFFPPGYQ
T8 sequence (P08637 17-208): as the sequence (P08637 17-208 F176V) above, with V160F counted along it

Binder	Enrichment factor (percentage after sorting/percentage before sorting) [1]	Increased factor (enrichment factor/wild-type enrichment factor) [1]	enrichment factor, percentage after 2nd sorting/percentage after 1st sorting (Biotin-FcγRIIB)	enrichment factor, percentage after 3rd sorting/percentage after 2nd sorting (Biotin-FcγRIIB)	percentage after 1st sorting (Biotin-FcγRIIB)	percentage after 2nd sorting (Biotin-FcγRIIB)	percentage after 3rd sorting (Biotin-FcγRIIB)	further results
B1	8.64	15.1	–	–	–	–	–	–
B2	–	–	44 ratio	5.95 ratio	0%	0.21%	1.25%	–
B3	–	–	47.4 ratio	5.76 ratio	0%	0.03%	0.19%	–
B4	–	–	39.1 ratio	5.02 ratio	0%	0.07%	0.33%	–
B5	–	–	73.6 ratio	7.21 ratio	0%	0.13%	0.9%	enrichment factor, percentage after 1st sorting/percentage before sorting (Biotin-FcγRIIB): 3.92 ratio; enrichment factor, percentage after 3rd sorting/percentage before sorting (Biotin-FcγRIIB): 2080 ratio; increased factor, mutant enrichment factor/wild-type enrichment factor (Biotin-FcγRIIB): 5550 ratio; percentage before sorting (Biotin-FcγRIIB): 0%
B6	–	–	53.3 ratio	5.53 ratio	0%	0.22%	1.2%	enrichment factor, percentage after 1st sorting/percentage before sorting (Biotin-FcγRIIB): 4.71 ratio; enrichment factor, percentage after 3rd sorting/percentage before sorting (Biotin-FcγRIIB): 1390 ratio; increased factor, mutant enrichment factor/wild-type enrichment factor (Biotin-FcγRIIB): 3700 ratio; percentage before sorting (Biotin-FcγRIIB): 0%
B7	42.2	73.5	–	–	–	–	–	–
B8	–	–	64.8 ratio	6.03 ratio	0.06%	4.14%	25%	enrichment factor, percentage after 1st sorting/percentage before sorting (Biotin-FcγRIIB): 21.1 ratio; enrichment factor, percentage after 3rd sorting/percentage before sorting (Biotin-FcγRIIB): 8230 ratio; increased factor, mutant enrichment factor/wild-type enrichment factor (Biotin-FcγRIIB): 21900 ratio; percentage before sorting (Biotin-FcγRIIB): 0%
B9	3.83	6.68	–	–	–	–	–	–
B10	8.63	15	–	–	–	–	–	–
B11	–	–	–	–	–	–	–	Absorbance value (FcγRI): 0.08 A650; Relative binding affinity RI/G1 (FcγRI): 0.03 ratio; Absorbance value (FcγRIIB [2]): 0.07 A650; Increased factor of RIIB binding compared with wild-type IgG2 (FcγRIIB [2]): 0.93 fold; Relative binding affinity RIIB/G1 (FcγRIIB [2]): 0.09 ratio; Absorbance value (FcγRIIIA^158V): 0.06 A650; Relative binding affinity RIIIAV/G1 (FcγRIIIA^158V): 0.06 ratio; Absorbance value (FcγRIIA^131H): 0.04 A650; Relative binding affinity RIIAH/G1 (FcγRIIA^131H): 0.08 ratio; RIIB/RIIAR (FcγRIIB [3]): 0.57 ratio
B12	–	–	–	–	–	–	–	Absorbance value (FcγRIIA^131R): 0.22 A650; Relative binding affinity RIIAR/G1 (FcγRIIA^131R): 0.83 ratio; Absorbance value (FcγRI): 0.17 A650; Relative binding affinity RI/G1 (FcγRI): 0.06 ratio; Absorbance value (FcγRIIB [2]): 0.64 A650; Increased factor of RIIB binding compared with wild-type IgG2 (FcγRIIB [2]): 8.51 fold; Relative binding affinity RIIB/G1 (FcγRIIB [2]): 0.85 ratio; Absorbance value (FcγRIIIA^158V): 0.09 A650; Relative binding affinity RIIIAV/G1 (FcγRIIIA^158V): 0.09 ratio; Absorbance value (FcγRIIA^131H): 0.35 A650; Relative binding affinity RIIAH/G1 (FcγRIIA^131H): 0.62 ratio; Absorbance value (FcγRIIIA^158F): 0.07 A650; Relative binding affinity RIIIAF/G1 (FcγRIIIA^158F): 0.38 ratio; RIIB/RIIAR (FcγRIIB [3]): 1.02 ratio
